In article PMC8546688:
pKd: −log10 of the molar value.

Target: His-tagged FtsZ (filamentous temperature-sensitive protein Z) (Streptococcus suis)
Assay: SPR; His-tagged FtsZ immobilized onto sensor chips as the ligand; MsmK constructs in concentration series as analytes; buffer without protein as negative control

Row | Substance | pKd | koff [s⁻¹] | kon [M⁻¹ s⁻¹]
1 | A_MsmK, MsmK with the Walker A motif deleted, His-tagged (from UniProt A0A0H3N1P0 1-376) (enzyme) | 9.39 | 0.000102 | 251000
2 | B_MsmK, MsmK with the Walker B motif deleted, His-tagged (from UniProt A0A0H3N1P0 1-376) (enzyme) | 9.51 | 0.000132 | 427000
